From article PMC6386368, “Multimerization of Homo sapiens TRPA1 ion channel cytoplasmic domains” (PLoS ONE, 2019)

B1: MBPCC1: maltose-binding protein fusion of the human TRPA1 C-terminal coiled-coil CC1 (amino acids A1036-T1078) (domain or fragment, UniProt O75762 1036-1078, looked up)
chain: ADKSLEMEILKQKYRLKDLTFLLEKQHELIKLIIQKMEIISET
notes: human TRPA1 C-terminal coiled-coil CC1, amino acids A1036-T1078; source: E. coli BL21(DE3), purified (amylose resin, SEC); also co-expressed with ARD in BL21(DE3), in cleared lysate; not shown: poly-histidine, N-terminal, kept; MBP, N-terminal, kept

Assays:
[1] = target: B1; experiment: pull-down; amylose resin co-purification from cleared lysate of bacteria co-expressing ARD and MBPCC1; incubation and 4 washes at 4 C, Buffer A1T, with or without IP6 and/or AITC; anti-His Western blot; conditions: partners not purified
[2] = target: the molecule itself; experiment: SEC-MALS; MBPCC1 diluted to 1 mg/ul (~20 uM) as printed, absence of IP6, Superdex 200 column
[3] = target: the molecule itself; experiment: SEC-MALS; MBPCC1 at 15 mg/ml (~300 uM), absence of IP6, Superdex 200 column

Binder | ARD:CC ratio [1] | stoichiometry N [2] | stoichiometry N [3]
TRPA1 ARD construct (N-terminal ankyrin repeat domains, amino acids 446-639) (domain or fragment, human, UniProt O75762 446-639, looked up, human TRPA1 ankyrin repeat domains with resolvable density in the cryoEM structure, amino acids 446-639; Cloned into pET28b (Nhe I and Sac I) in frame with an N-terminal poly-histidine tag; also called ARDs; N-terminal ARD; source: E. coli BL21(DE3), co-expressed with MBPCC1, in cleared lysate; not shown: poly-histidine, N-terminal, kept) KKSPLHFAASYGRINTCQRLLQDISDTRLLNEGDLHGMTPLHLAAKNGHDKVVQLLLKKGALFLSDHNGWTALHHASMGGYTQTMKVILDTNLKCTDRLDEDGNTALHFAAREGHAKAVALLLSHNADIVLNKQQASFLHLALHNKRKEVVLTIIRSKRWDECLKIFSHNSPGNKCPITEMIEYLPECMKVLLD | ~0.3 | – | –
B1 | – | 3 | 4
